Test results taken from IntAct's records for PubMed 17053785.

B1: Partitioning defective 3 homolog (Homo sapiens), Q8TEW0 (parent)
chain: MKVTVCFGRTRVVVPCGDGHMKVFSLIQQAVTRYRKAIAKDPNYWIQVHRLEHGDGGILDLDDILCDVADDKDRLVAVFDEQDPHHGGDGTSASSTGTQSPEIFGSELGTNNVSAFQPYQATSEIEVTPSVLRANMPLHVRRSSDPALIGLSTSVSDSNFSSEEPSRKNPTRWSTTAGFLKQNTAGSPKTCDRKKDENYRSLPRDTSNWSNQFQRDNARSSLSASHPMVGKWLEKQEQDEDGTEEDNSRVEPVGHADTGLEHIPNFSLDDMVKLVEVPNDGGPLGIHVVPFSARGGRTLGLLVKRLEKGGKAEHENLFRENDCIVRINDGDLRNRRFEQAQHMFRQAMRTPIIWFHVVPAANKEQYEQLSQSEKNNYYSSRFSPDSQYIDNRSVNSAGLHTVQRAPRLNHPPEQIDSHSRLPHSAHPSGKPPSAPASAPQNVFSTTVSSGYNTKKIGKRLNIQLKKGTEGLGFSITSRDVTIGGSAPIYVKNILPRGAAIQDGRLKAGDRLIEVNGVDLVGKSQEEVVSLLRSTKMEGTVSLLVFRQEDAFHPRELNAEPSQMQIPKETKAEDEDIVLTPDGTREFLTFEVPLNDSGSAGLGVSVKGNRSKENHADLGIFVKSIINGGAASKDGRLRVNDQLIAVNGESLLGKTNQDAMETLRRSMSTEGNKRGMIQLIVARRISKCNELKSPGSPPGPELPIETALDDRERRISHSLYSGIEGLDESPSRNAALSRIMGESGKYQLSPTVNMPQDDTVIIEDDRLPVLPPHLSDQSSSSSHDDVGFVTADAGTWAKAAISDSADCSLSPDVDPVLAFQREGFGRQSMSEKRTKQFSDASQLDFVKTRKSKSMDLGIADETKLNTVDDQKAGSPSRDVGPSLGLKKSSSLESLQTAVAEVTLNGDIPFHRPRPRIIRGRGCNESFRAAIDKSYDKPAVDDDDEGMETLEEDTEESSRSGRESVSTASDQPSHSLERQMNGNQEKGDKTDRKKDKTGKEKKKDRDKEKDKMKAKKGMLKGLGDMFRFGKHRKDDKIEKTGKIKIQESFTSEEERIRMKQEQERIQAKTREFRERQARERDYAEIQDFHRTFGCDDELMYGGVSSYEGSMALNARPQSPREGHMMDALYAQVKKPRNSKPSPVDSNRSTPSNHDRIQRLRQEFQQAKQDEDVEDRRRTYSFEQPWPNARPATQSGRHSVSVEVQMQRQRQEERESSQQAQRQYSSLPRQSRKNASSVSQDSWEQNYSPGEGFQSAKENPRYSSYQGSRNGYLGGHGFNARVMLETQELLRQEQRRKEQQMKKQPPSEGPSNYDSYKKVQDPSYAPPKGPFRQDVPPSPSQVARLNRLQTPEKGRPFYS

Variants of: B1
Conditions: with csk_human CSK

Variant	effect of a mutation on the interaction
Y1127F	disrupting interaction
